Data taken from the supplement of paper PMC9170038.

Tested on: MS2 coat protein
Test: apparent KD of MS2 coat protein; higher = weaker reporter binding
Conditions: Eterna round: R107
Procedure, shortened: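 The designed RNA switches were transcribed on-chip from Illumina sequencing clusters. In 100 mM Tris-HCl pH 7.5, 80 mM KCl and 4 mM MgCl2, without or with constant ligand, they were titrated with SNAP-549-labelled MS2 coat protein from 0.7 or 1.5 nM to 3 µM in twofold steps. Apparent KD is the per-design median of normalised cluster binding-curve fits.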

[1] = input ligand: theophylline 20 uM
[2] = input ligand: theophylline 2 mM
[3] = input ligand: tryptophan 2.4 mM

Sequence | apparent KD of MS2 coat protein (input ligand: arginine 13.2 mM) [nM] | apparent KD of MS2 coat protein (input ligand: none) [nM] | apparent KD of MS2 coat protein [1] [nM] | apparent KD of MS2 coat protein [2] [nM] | apparent KD of MS2 coat protein [3] [nM]
GACAUGAGGAUCGAUACCAGCGACAUGAGGAUCACAUGAGGAUCACCCAUGUGUAGUAUACGCCCUUGGCAGCGAACAUGAGGAU [Same State Theophylline B 3] | 74.3 | 51.4 | 71.2 | 39.2 | 32.3
GACAUUAUCUGAAGGAGCGAGGUAAAUAGGGAUGAGCAUACAUGAGGAUCACCCAUGUGGCCUCAGGUAGGUCGCAGAUGAGAUU [Exclusion Arginine B GF26] | 41.1 | 253 | 212 | 453 | 256
GACCGAUUAUAGUGCGAUUCUCUUGUGGAAGGAGCGCAGAGGACUGCAGGUAGGUCGCCACAUGAGGAUCACCCAUGUCAGGAUA [Esxebiat] | 65.6 | 183 | 89.6 | 708 | 10.6
GACGGGCCUAUUGAUACCAGACCUAGUGACAACAUGAGGAUCACCCAUGUGACGGCAAAAGUCCCUUGGCAGCAAGUAGAAAUAA [theeternabot_sameState_MS2_Theo_B_41] | 14 | – | 16.6 | – | 15.4
GAGGGUGAAUCUCUAGUCCGUUUGACGGAUACCAGCGAGAGGUAUCGCCCUUGGCAGCCGACGACAUGAGGAUCACCCAUGUUAA [#07 Exclusion-TheophyllineA] | 22.2 | 40.6 | 42.6 | 22 | 29.3
GAGGGUGGGUCUCUAAUCCGUUUGACGGAUACCAGCGAGAGAUAUCGCCCUUGGCAGCCGACGACAUGAGGAUCACCCAUGUAAA [#06 Exclusion-TheophyllineA] | 17.1 | – | 19.6 | – | 16.9
GAGGUCCUGAGAGAUACCAGUGAGGCCACAUGAGGAUCACCCAUGUCCCUCACUCCGGCCCACCCUUGGCAGCUCGGAAGGUAAA [Exclusion Theophylline B GF 23] | 14.9 | – | 29.7 | – | 17.5
GAUAUGGAAACAUGUCAGAUCCUUACCGGUCGAGGACCGGUACGGCCGCCACUCGAAAACGAGGAACAUGAGGAUCACCCAUGUA [Ex Tryptophan A 20] | 32.7 | – | 50.4 | 49.5 | –
GAUAUGGAAACAUGUCAGAUCCUUACCGGUCGAGGACCGGUACGGCCGCCACUCGAAAACGAUGUACAUGAGGAUCACCCAUGUA [Ex Tryptophan A 19] | 13.7 | 14 | 16.2 | 14.7 | 21.6
GAUAUGGAAACAUGUCAGAUCCUUACCGGUCGAGGACCGGUACGGCCGCCACUCGGAAAUAUUGUACAUGAGGAUCACCCAUGUA [Ex Tryptophan A 18] | 14.1 | – | 16.1 | 16.1 | –
GAUCCACAUGAGGAUCACCCAUGUGAGGAUACCAGUACCAGAUCCUACCCUUGGCAGCCUAACCUUCAUUCAACACGAAUAAGAA [theeternabot_sameState_MS2_Theo_A_20] | 13.8 | – | 16.7 | – | 15
GAUGAUAUUGCAGAUACCAGACACAUGAGGAUCACCCAUGUCGCUGGGUUACUGGGUCGUGUCCCUUGGCAGCUGCGAUAUCAUC [Belize] | 33.6 | – | 89.2 | – | 42.1
GAUUGCAUCGAUUCUCCACUCGCACCUGAUACCAGCGAUAGAAUUCGCCCUUGGCAGCAGUACACAUGAGGAUCACCCAUGUUAU [theeternabot_exclusion_MS2_Theo_A_20] | 25.5 | – | 42.4 | – | 35
GAUUGGAUUUGAAGGAGCGUCGAAAAUGGGUAAACAUGAGGAUCACCCAUGUAAAGGGAACGACAGGUAGGUCGCAAAUUUAAUC [AstromonsSSArgB#31] | 84.7 | 111 | 148 | 213 | 162
GAUUUAACAAAAGUUGGAUCAGUGGGUGAACGAGGACCGGUACGGCCGCCACUCGGACAUGAGGAUCACCCAUGUCCAUGUGAAA [AstrosExyTryA#19] | 47.2 | 129 | 167 | 121 | 77.1
